Source: WO2013125221A1 (dated 2013)

Target: T1, MBP-IGKVDJ3-6×His (MBP fusion human antibody kappa light chain variable region protein, family 3 consensus)
T1 construct: also called MBP-VK3
Assay: SPR (legend of Fig. 12B), control MBP

T1 sequence (chain, as listed by the source): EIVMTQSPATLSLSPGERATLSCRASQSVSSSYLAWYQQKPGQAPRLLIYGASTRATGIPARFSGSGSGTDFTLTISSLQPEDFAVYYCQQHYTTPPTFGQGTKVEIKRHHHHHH

Binder: WHWNWMRLDPMT [code 15 peptide]
- binding result: binds
